Laboratory results: patent US20240141372A1, “TRANSGENIC BANANA PLANTS HAVING INCREASED RESISTANCE TO FUSARIUM OXYSPORUM TROPICAL RACE 4 AND METHODS OF PRODUCING SAME” (Elo Life Systems, priority 2022, published 2024)

Tested on: Foc_TR4
Assay: In vitro spore germination and mycelial growth assay
Assay type: cell-based, Fusarium oxysporum f.sp. cubense Tropical Race 4
Conditions: Foc_TR4 spores, purified Pichia-secreted protein, low ionic strength media, 25° C., A595 at 48 hours; read-out: IC50 (μM, CE fraction)

| Molecule | IC50 [µM] |
| --- | --- |
| Mba02_g12080.1: defensin antimicrobial protein, Musa acuminata, without yeast signal peptide (RTCESQSHKFVGPCVREANCANVCHTEGFHGGVCRGTLIHRKCYCTKNC; listed as Musa acuminata) | 6 ± 0.59 |
| GB ID: RRT50697.1: defensin antimicrobial protein, Musa acuminata (RTCESASSRFKGTCVRSSNCASVCQGEGFPDGRCEGLRRRCMCRKPC; listed as Musa acuminata) | 0.51 ± 0.01 |
| Ma06_p21420.1: defensin antimicrobial protein, Musa acuminata (KICRLPSIGFRGPCTSDKNCAKVCRREGFDSGDCEGYTMGCLCNKHC; listed as Musa acuminata) | 3 ± 0.17 |
| Ma04_p36140.1: defensin antimicrobial protein, Musa acuminata (RTCESASTRFKGTCVRSSNCASVCQGEGFPDGKCEGVRRRCMCRKPC; listed as Musa acuminata) | 0.84 ± 0.06 |
| Ma11_p12930.1: defensin antimicrobial protein, Musa acuminata (RVCRYASRSFRGLCFSDTNCAHVCQTEGFNGGHCHGLRRRCMCLRRGC; listed as Musa acuminata) | 0.17 ± 0.006 |
| Ma02_p12840.1: defensin antimicrobial protein, Musa acuminata (RTCESQSHKFVGPCVRKANCGNVCQTEGFHGGVCRGSLIHRKCYCTKNC; listed as Musa acuminata) | 0.86 ± 0.07 |
| Ma08_p13660.1: defensin antimicrobial protein, Musa acuminata (RKCESASHKFKGLCFRASNCANVCKTEGFHGGHCRGLRRRCFCTKHCNSAT; listed as Musa acuminata) | > 25 |
| Ma02_p13180.1: TLP antimicrobial protein, Musa acuminata (protein, listed as Musa acuminata) ATFTLTNNCEYTVWPGVLSSAGTAPLSITGFALQQGESRSLDVPAAWSGRFWGRTLCAADASGKFSCGTGDCGSGAVECSGSGAAPPATLAEFTLDGSGGMDFYDVSLVDGYNLPMLVVPQGGSGGACSSTGCLVDLNGVCPSDLKVVLPTSEGGSESVACRSACETFGSPQYCCSGDYGNPNTCKPSSYSQFFKNACPRAYSYAYDDATSTFTCASANYLITFCPSTTSQKSSDSNPEAAGIPSSNNSTMIYSSEEVSHATPTVPRVAVALALAVVALCLGF | > 30 |
| Ma07_p17800.1: TLP antimicrobial protein, Musa acuminata (protein, listed as Musa acuminata) ATFDIVNQCSFTVWAAAVPGGGRQLDPSQTWSINVNPGTTGGRVWARTDCSFDGSGSGSCQTGDCGGLLECQGYGTPPNTLAEFALNQFQNMDFIDISLVDGFNVPMDFSPTSGDCRGIRCSADINGQCPAELRAPGGCNNPCTVFKTDEYCCTSGSCGPTNYSMFFKNNCPDAYSYPKDDATSTFTCPGGTNYRVVFCP | > 25 |
| Ma04_p17200.1: LTP antimicrobial protein, Musa acuminata (protein, listed as Musa acuminata) ITCGQVTSALSSCISYATGKGPLSTACCSGVKSLNSAAKTTADRKTACTCIKSTVSRLSGAQAGAIAGIPGKCGVSIGYPISASTDCSKVK | 2.09 ± 0.06 |
| Ma09_p26730.1: TLP antimicrobial protein, Musa acuminata (protein, listed as Musa acuminata) ATFEIVNWCPFTVWAAAVPGGGRQLDRGQTWVLDVNPGTTGGRIWARTGCSFDGSGSGSCQTGDCGGVLACQGYGSPPNTLAEFALNQFDNLDFLDVSLVDGFNVPMEFSPITGNCSAIRCLADIKGQCPAELWTPGGCNNPCTVFKTDEYCCTSGSCGPTNYSNFFKSNCPDAYSYPKDDATSTFTCPGNGDYKVIFCPSDGYPTRFGRTAVRFVIPRA | > 31 |
| Ma04_p17240.1: LTP antimicrobial protein, Musa acuminata (protein, listed as Musa acuminata) ITCSQVYGDLISCVGYLQGGPIKQQCCSGIKSLIAAARTTQDRRTACGCIKTAAAGLSGIDYGRVSQLPGQCGISVSYKISPNVDCSKIN | 1.92 ± 0.13 |
| Ma04_p17190.1: LTP antimicrobial protein, Musa acuminata (protein, listed as Musa acuminata) ITCSQVYGDLISCVGYLQGGPIKQQCCSGIKSLIAAARTTKDRRTACGCIKTAAAGLSGIDYGRVSQLPGQCGISVSYKISPNVDCSKIN | 3.47 ± 0.21 |
| Ma11_p18240.1: LTP antimicrobial protein, Musa acuminata (protein, listed as Musa acuminata) AIGCGQIISYLIPCLGYAQGTGPLTDGCCSGVRALNGAAQTTPDRQATCNCLKRSAAGVSGIQPGLIAGIPSKCGINVPYRISPSTDCSRVR | 2.25 ± 0.16 |
| Ma06_p00870.1: snakin antimicrobial protein, Musa acuminata (protein, listed as Musa acuminata) KDLPAEEFGVSLAEKGHKHKHSGFSEAECPGACQYRCSKTAYKKPCLFFCQKCCFKCRCVPPGTYAHKEVCPCYNNWKTKRGGPKCP | > 16 |
| Ma09_p13940.1: snakin antimicrobial protein, Musa acuminata (protein, listed as Musa acuminata) RKAVVEDEPPVSGGGDGKPPVPVIDCAGLCGVRCSRHSRPNLCKRACGTCCFRCKCVPPGTSGNREMCGACYTNMTTHGNRTKCP | 0.38 ± 0.01 |
| Ma06_p33170.1: TLP antimicrobial protein, Musa acuminata (protein, listed as Musa acuminata) NFEIVNRCSYTVWAAAVPGGGRQLNQGQSWTINVKAGTTGGRIWGRTGCSFDGSGHGRCQTGDCGGLLACTAYGSPPNTLAEFALNQYSNQDYVDISLVDGFNVPMDFSPTSGGCRGMRCTADINKKCPTALKAPGGCNNPCTVFKTDQYCCNSGSCQPTEYSKFFKSNCPDAYSYPKDDPTSLVACPGGTNYRVVFCP | 0.052 ± 0.002 |
| Ma06_p09450.1: snakin antimicrobial protein, Musa acuminata (protein, listed as Musa acuminata) ADSAYCKSKCKVRCAKAGVMDRCLYYCGMCCEECKCVPSGTYGNKDECPCYRDKVTKDDKKKSKCP | 2.71 ± 0.53 |
| Ma02_p17990.1: TLP antimicrobial protein, Musa acuminata (protein, listed as Musa acuminata) QYPAMTLTVVNNCPFTVWPAIQPNSGHDVLERGGFALPTVTHRSFPAPTQHWSGRIWARTGCTYANGRFSCATGDCGGRLECGGLGGAAPATLAQVTLHHGGQQDLSSYGVSLVDGFNVGMTVTPHEGKGRCPVVGCRENLLATCPDVLQLRAPAGGGQVVGCKSGCQAFGTDELCCRNMYNSPRTCRASSYSEFFKHACPATFTYAHDSPSLTHECAAPRELKVIFCH | 0.64 |
| Ma09_p21930.1: LTP antimicrobial protein, Musa acuminata (protein, listed as Musa acuminata) VTCNPLELSPCSSAVLSGARPSAACCAKLKEQQPCFCQYKKNPSLKDYVNSDNGKKALKACGVPIPSC | 1.86 ± 0.08 |
| Ma10_p18110.1: snakin antimicrobial protein, Musa acuminata (protein, listed as Musa acuminata) GSAFCGSKCKVRCSKASVKDRCLKYCGLCCEQCRCVPSGTYGHKDECPCYRDKYTGSGKRRRPKCP | 1.31 ± 0.03 |
| Ma09_p27770.1: snakin antimicrobial protein, Musa acuminata (protein, listed as Musa acuminata) GSLKPSECNNKCDFRCSATSHKKPCLFFCKECCATCLCVPPGTYGNKEACPCYNNWKTKEGGPKCP | 0.08 ± 0.003 |
| Ma06_p33150.1: TLP antimicrobial protein, Musa acuminata (protein, listed as Musa acuminata) TFEIVNRCSYTVWAAAVPGGGRQLNQGQSWTINVNAGTTGGRIWGRTGCSFDGSGRGRCQTGDCGGVLSCTAYGSPPNTLAEFALNQFNNLDFFDISLVDGFNVPMDFSPTSGGCRGIRCAADINGQCPGALKAPGGCNNPCTVFKTDQYCCNSGSCSPTDYSRFFKRNCPDAYSYPKDDQTSTFTCPGGTNYRVVFCP | 0.029 ± 0.001 |
| Ma06_p20150.1: snakin antimicrobial protein, Musa acuminata (protein, listed as Musa acuminata) EREINCEAKCSHRCSKASRHKMCMRACVDCCHKCHCVPPGTYGHKEECPCYAHMKTRHGKPKCP | 0.53 ± 0.01 |
| Ma03_p07220.1: TLP antimicrobial protein, Musa acuminata (protein, listed as Musa acuminata) ATLALYNKCRETVWPGIQPSAGKAVLARGGFQLLPNQAYSLRLPAGWSGRVWGRRGCAFDPATGRGRCATGDCGGALYCNGLGGAPPATLAEFTLGQGRQQDFYDVSLVDGYNLGMSMTPFRGSGQCGRAGCVSDLNEVCPAGLAVRGGTDNRVVACKSACSAFGSPRYCCTGSFGGPQQCKPTAYSRLFKAACPRAYSYAYDDPTSILTCTGASYLVTFCPQH | 0.009 ± 0.0005 |
| Ma07_p21450.1: snakin antimicrobial protein, Musa acuminata (protein, listed as Musa acuminata) KDAFMEAGYAKAPVVAPVPAPPAPRIIKDTKECGDACKDRCKLHSRQNVCSRACITCCSVCKCVPPGTYGHTELCGKCYTDWKTHGNRTKCP | 0.9 ± 0.05 |
| Ma04_p30830.1: LTP antimicrobial protein, Musa acuminata (protein, listed as Musa acuminata) ATCNPTELTPCAAAILKSSPPSSLCCSKLKSQAPCFCQYQKNPSLSRYISGGRKVAAACGVPVPSC | 6.34 ± 0.23 |
| Ma08_p22790.1: snakin antimicrobial protein, Musa acuminata (protein, listed as Musa acuminata) RISLAPTAQPGNPLGPTPQPIKFPMYGATPGSLQPQECSGRCAGRCSATAYKKPCMFFCQKCCAKCLCVPPGTYGNKQVCPCYNNWKTKRGGPKCP | 0.52 ± 0.08 |
